We go through one molecule from publication PMC11443083.

Test [1] has as its target T1, PAR1 receptor (1–425 amino acids) Y350A (human) (UniProt P25116).
T1 sequence: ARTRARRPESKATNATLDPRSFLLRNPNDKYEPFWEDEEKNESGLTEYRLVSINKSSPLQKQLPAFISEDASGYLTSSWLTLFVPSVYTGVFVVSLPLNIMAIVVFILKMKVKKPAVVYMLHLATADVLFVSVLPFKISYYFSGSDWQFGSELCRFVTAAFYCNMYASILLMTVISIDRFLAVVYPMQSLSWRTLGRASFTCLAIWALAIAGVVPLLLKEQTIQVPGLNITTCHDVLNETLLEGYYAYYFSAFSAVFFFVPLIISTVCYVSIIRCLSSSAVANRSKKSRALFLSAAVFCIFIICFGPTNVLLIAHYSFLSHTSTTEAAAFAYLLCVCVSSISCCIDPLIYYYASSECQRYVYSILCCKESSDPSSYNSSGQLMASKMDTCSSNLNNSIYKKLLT

Test [2] addresses T2, PAR1 receptor (1–425 amino acids) D256A (human) (UniProt P25116).
T2 sequence: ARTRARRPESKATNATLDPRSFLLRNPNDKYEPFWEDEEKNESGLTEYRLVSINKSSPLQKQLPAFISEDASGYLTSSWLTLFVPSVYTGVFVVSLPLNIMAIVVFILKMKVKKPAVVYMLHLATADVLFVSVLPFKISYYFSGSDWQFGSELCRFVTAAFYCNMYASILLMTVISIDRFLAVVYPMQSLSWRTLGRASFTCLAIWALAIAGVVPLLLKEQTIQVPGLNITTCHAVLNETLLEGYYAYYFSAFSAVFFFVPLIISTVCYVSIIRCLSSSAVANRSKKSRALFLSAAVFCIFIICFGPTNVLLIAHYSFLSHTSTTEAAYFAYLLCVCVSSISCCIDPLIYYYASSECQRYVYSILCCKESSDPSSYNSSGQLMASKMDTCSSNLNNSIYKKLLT

With SFLLRN [Synthesized TA peptide (SFLLRN)], the results for the NanoBiT Gαq–Gγ dissociation in HEK293T cells induced by the synthesized TA peptide; fold decrease of potency against WT PAR1 in test [1] and in test [2] were 158 fold and 33 fold, respectively.
